T1: EsCas13d, nuclease-dead (Eubacterium siraeum, UniProt B0MS50, R295A;H300A;R849A;H854A)
T1 sequence: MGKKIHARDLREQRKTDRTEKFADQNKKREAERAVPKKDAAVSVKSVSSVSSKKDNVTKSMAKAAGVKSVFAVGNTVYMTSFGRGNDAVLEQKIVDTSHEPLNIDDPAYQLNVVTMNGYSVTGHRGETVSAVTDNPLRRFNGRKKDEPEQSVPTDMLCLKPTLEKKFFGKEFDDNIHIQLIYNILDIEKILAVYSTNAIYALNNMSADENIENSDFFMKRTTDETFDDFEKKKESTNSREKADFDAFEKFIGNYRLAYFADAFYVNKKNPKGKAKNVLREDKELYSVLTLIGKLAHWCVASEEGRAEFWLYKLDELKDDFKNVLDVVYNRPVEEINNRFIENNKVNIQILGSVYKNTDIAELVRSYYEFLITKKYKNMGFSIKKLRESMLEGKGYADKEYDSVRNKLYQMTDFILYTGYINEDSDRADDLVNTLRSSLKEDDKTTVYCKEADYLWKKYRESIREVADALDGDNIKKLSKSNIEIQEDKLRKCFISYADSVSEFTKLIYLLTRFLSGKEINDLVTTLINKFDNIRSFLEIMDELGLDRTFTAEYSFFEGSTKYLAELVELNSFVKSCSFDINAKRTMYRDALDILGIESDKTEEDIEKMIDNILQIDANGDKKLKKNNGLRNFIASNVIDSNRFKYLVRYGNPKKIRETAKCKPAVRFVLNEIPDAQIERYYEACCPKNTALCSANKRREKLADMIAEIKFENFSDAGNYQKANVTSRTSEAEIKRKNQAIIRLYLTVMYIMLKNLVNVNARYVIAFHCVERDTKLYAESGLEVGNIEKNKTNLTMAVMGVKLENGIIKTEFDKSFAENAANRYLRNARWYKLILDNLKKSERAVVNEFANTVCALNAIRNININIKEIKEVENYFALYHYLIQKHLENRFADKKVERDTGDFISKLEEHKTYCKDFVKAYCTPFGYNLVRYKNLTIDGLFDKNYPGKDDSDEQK


Biological target: T1, EsCas13d, nuclease-dead
Experiment: crRNA (strand 1, pre-loaded); Mg2+; 40 mM Tris-HCl pH 7.5, 150 mM NaCl, 6 mM MgCl2, 1 mM DTT, 0.1% Tween-20, 0.2 mg/ml BSA; 25 C; 10 min per concentration, then washed
Details: tags: His6-TwinStrep-SUMO cleaved; N-terminal SNAP kept (SNAP-Surface 488); label: 3' end held by stalled T7 RNA polymerase

Binder | Kd [nM]
target 1 C2U,G12A (mixed) RNA 1: CACCCGUGCAAAAAUGCAGGGGUCUAAAACUGAGCGGAUAACCUCUCUAUGG RNA 2: GGGAAUGGAUCCACAUCUACGAAUUCGUACCAUAGAGAGAUUAUCCGCUUACCGAGAUCGGAAGAGCACACGU | 4.5 ± 0.14
target 1 insU 3' of 18,insG 3' of 11 (mixed) RNA 1: CACCCGUGCAAAAAUGCAGGGGUCUAAAACUGAGCGGAUAACCUCUCUAUGG RNA 2: GGGAAUGGAUCCACAUCUACGAAUUCGUACCAUAUGAGAGGUGUAUCCGCUCACCGAGAUCGGAAGAGCACACGU | 78 ± 21
target 1 G5C,U8C (mixed) RNA 1: CACCCGUGCAAAAAUGCAGGGGUCUAAAACUGAGCGGAUAACCUCUCUAUGG RNA 2: GGGAAUGGAUCCACAUCUACGAAUUCGUACCAUAGAGAGGUUACCCCCUCACCGAGAUCGGAAGAGCACACGU | 6.4 ± 0.4
target 3 A5G,A11G (mixed) RNA 1: CACCCGUGCAAAAUUGCAGGGGUCUAAAACGACCUGAAUAUUUCAGAUCAAA RNA 2: GGGAAUGGAUCCACAUCUACGAAUUCGUUUUUGAUCUGAAGUAUUCGGGUCUGCAGAUCGGAAGAGCACACGU | 73.5 ± 28.5
target 3 U2A,U22A (mixed) RNA 1: CACCCGUGCAAAAUUGCAGGGGUCUAAAACGACCUGAAUAUUUCAGAUCAAA RNA 2: GGGAAUGGAUCCACAUCUACGAAUUCGUUAUUGAUCUGAAAUAUUCAGGACUGCAGAUCGGAAGAGCACACGU | 32.8 ± 2.85
target 3 G4U,C6A (mixed) RNA 1: CACCCGUGCAAAAUUGCAGGGGUCUAAAACGACCUGAAUAUUUCAGAUCAAA RNA 2: GGGAAUGGAUCCACAUCUACGAAUUCGUUUUUGAUCUGAAAUAUUAAUGUCUGCAGAUCGGAAGAGCACACGU | 29.5 ± 7.5
target 3 G3U,U21A (mixed) RNA 1: CACCCGUGCAAAAUUGCAGGGGUCUAAAACGACCUGAAUAUUUCAGAUCAAA RNA 2: GGGAAUGGAUCCACAUCUACGAAUUCGUUUAUGAUCUGAAAUAUUCAGUUCUGCAGAUCGGAAGAGCACACGU | 87.5 ± 15.5
target 3 insC 3' of 4,insU 3' of 1 (mixed) RNA 1: CACCCGUGCAAAAUUGCAGGGGUCUAAAACGACCUGAAUAUUUCAGAUCAAA RNA 2: GGGAAUGGAUCCACAUCUACGAAUUCGUUUUUGAUCUGAAAUAUUCAGCGUCUUGCAGAUCGGAAGAGCACACGU | 72.5 ± 33.5
target 3 G3C,G4C (mixed) RNA 1: CACCCGUGCAAAAUUGCAGGGGUCUAAAACGACCUGAAUAUUUCAGAUCAAA RNA 2: GGGAAUGGAUCCACAUCUACGAAUUCGUUUUUGAUCUGAAAUAUUCACCUCUGCAGAUCGGAAGAGCACACGU | 36.1 ± 5.75
target 3 G4U,U22C (mixed) RNA 1: CACCCGUGCAAAAUUGCAGGGGUCUAAAACGACCUGAAUAUUUCAGAUCAAA RNA 2: GGGAAUGGAUCCACAUCUACGAAUUCGUUCUUGAUCUGAAAUAUUCAUGUCUGCAGAUCGGAAGAGCACACGU | 4.65 ± 0.85
target 3 insA 3' of 22,insG 3' of 5 (mixed) RNA 1: CACCCGUGCAAAAUUGCAGGGGUCUAAAACGACCUGAAUAUUUCAGAUCAAA RNA 2: GGGAAUGGAUCCACAUCUACGAAUUCGUUUAUUGAUCUGAAAUAUUCAGGGUCUGCAGAUCGGAAGAGCACACGU | 23.1 ± 3.4
target 3 insU 3' of 22,insA 3' of 6 (mixed) RNA 1: CACCCGUGCAAAAUUGCAGGGGUCUAAAACGACCUGAAUAUUUCAGAUCAAA RNA 2: GGGAAUGGAUCCACAUCUACGAAUUCGUUUUUUGAUCUGAAAUAUUCAAGGUCUGCAGAUCGGAAGAGCACACGU | 7.2 ± 0.55
target 3 insC 3' of 4,insC 3' of 4 (mixed) RNA 1: CACCCGUGCAAAAUUGCAGGGGUCUAAAACGACCUGAAUAUUUCAGAUCAAA RNA 2: GGGAAUGGAUCCACAUCUACGAAUUCGUUUUUGAUCUGAAAUAUUCAGCCGUCUGCAGAUCGGAAGAGCACACGU | 34.5 ± 8.5
target 3 C1U,G14U (mixed) RNA 1: CACCCGUGCAAAAUUGCAGGGGUCUAAAACGACCUGAAUAUUUCAGAUCAAA RNA 2: GGGAAUGGAUCCACAUCUACGAAUUCGUUUUUGAUCUUAAAUAUUCAGGUUUGCAGAUCGGAAGAGCACACGU | 72.5 ± 19
target 3 insA 3' of 7,insG 3' of 2 (mixed) RNA 1: CACCCGUGCAAAAUUGCAGGGGUCUAAAACGACCUGAAUAUUUCAGAUCAAA RNA 2: GGGAAUGGAUCCACAUCUACGAAUUCGUUUUUGAUCUGAAAUAUUACAGGUGCUGCAGAUCGGAAGAGCACACGU | 28.2 ± 4.15
target 3 insA 3' of 3,insC 3' of 3 (mixed) RNA 1: CACCCGUGCAAAAUUGCAGGGGUCUAAAACGACCUGAAUAUUUCAGAUCAAA RNA 2: GGGAAUGGAUCCACAUCUACGAAUUCGUUUUUGAUCUGAAAUAUUCAGGACUCUGCAGAUCGGAAGAGCACACGU | 22.8 ± 2.35
target 3 G3C,U22G (mixed) RNA 1: CACCCGUGCAAAAUUGCAGGGGUCUAAAACGACCUGAAUAUUUCAGAUCAAA RNA 2: GGGAAUGGAUCCACAUCUACGAAUUCGUUGUUGAUCUGAAAUAUUCAGCUCUGCAGAUCGGAAGAGCACACGU | 79.5 ± 13
target 3 insC 3' of 22,insA 3' of 2 (mixed) RNA 1: CACCCGUGCAAAAUUGCAGGGGUCUAAAACGACCUGAAUAUUUCAGAUCAAA RNA 2: GGGAAUGGAUCCACAUCUACGAAUUCGUUUCUUGAUCUGAAAUAUUCAGGUACUGCAGAUCGGAAGAGCACACGU | 59 ± 10
target 3 insC 3' of 5,insG 3' of 5 (mixed) RNA 1: CACCCGUGCAAAAUUGCAGGGGUCUAAAACGACCUGAAUAUUUCAGAUCAAA RNA 2: GGGAAUGGAUCCACAUCUACGAAUUCGUUUUUGAUCUGAAAUAUUCACGGGUCUGCAGAUCGGAAGAGCACACGU | 5.57 ± 0.52
target 3 insC 3' of 5,insU 3' of 1 (mixed) RNA 1: CACCCGUGCAAAAUUGCAGGGGUCUAAAACGACCUGAAUAUUUCAGAUCAAA RNA 2: GGGAAUGGAUCCACAUCUACGAAUUCGUUUUUGAUCUGAAAUAUUCACGGUCUUGCAGAUCGGAAGAGCACACGU | 10.8 ± 1.25
target 3 C6U,U21G (mixed) RNA 1: CACCCGUGCAAAAUUGCAGGGGUCUAAAACGACCUGAAUAUUUCAGAUCAAA RNA 2: GGGAAUGGAUCCACAUCUACGAAUUCGUUUGUGAUCUGAAAUAUUUAGGUCUGCAGAUCGGAAGAGCACACGU | 110 ± 40
target 3 A11C,U22A (mixed) RNA 1: CACCCGUGCAAAAUUGCAGGGGUCUAAAACGACCUGAAUAUUUCAGAUCAAA RNA 2: GGGAAUGGAUCCACAUCUACGAAUUCGUUAUUGAUCUGAACUAUUCAGGUCUGCAGAUCGGAAGAGCACACGU | ~90
target 3 insC 3' of 5,insA 3' of 2 (mixed) RNA 1: CACCCGUGCAAAAUUGCAGGGGUCUAAAACGACCUGAAUAUUUCAGAUCAAA RNA 2: GGGAAUGGAUCCACAUCUACGAAUUCGUUUUUGAUCUGAAAUAUUCACGGUACUGCAGAUCGGAAGAGCACACGU | 15.8 ± 1.6
target 3 insU 3' of 9,insC 3' of 9 (mixed) RNA 1: CACCCGUGCAAAAUUGCAGGGGUCUAAAACGACCUGAAUAUUUCAGAUCAAA RNA 2: GGGAAUGGAUCCACAUCUACGAAUUCGUUUUUGAUCUGAAAUAUCUUCAGGUCUGCAGAUCGGAAGAGCACACGU | 96.5 ± 19
